Measurements from patent US20050106177A1.

Tests used:
Test in all cases: cell-based or functional assay
[1] = target: ADA envelope glycoproteins on recombinant HIV-1 (HIV-1, primary isolate ADA)
[2] = target: HXBc2 envelope glycoproteins on recombinant HIV-1 (HIV-1, TCLA strain HXBc2) (UniProt P04578)
[3] = target: YU2 envelope glycoproteins on recombinant HIV-1 (HIV-1, primary isolate YU2) (UniProt P35961)
Chain of UniProt P35961 (P35961 32-843): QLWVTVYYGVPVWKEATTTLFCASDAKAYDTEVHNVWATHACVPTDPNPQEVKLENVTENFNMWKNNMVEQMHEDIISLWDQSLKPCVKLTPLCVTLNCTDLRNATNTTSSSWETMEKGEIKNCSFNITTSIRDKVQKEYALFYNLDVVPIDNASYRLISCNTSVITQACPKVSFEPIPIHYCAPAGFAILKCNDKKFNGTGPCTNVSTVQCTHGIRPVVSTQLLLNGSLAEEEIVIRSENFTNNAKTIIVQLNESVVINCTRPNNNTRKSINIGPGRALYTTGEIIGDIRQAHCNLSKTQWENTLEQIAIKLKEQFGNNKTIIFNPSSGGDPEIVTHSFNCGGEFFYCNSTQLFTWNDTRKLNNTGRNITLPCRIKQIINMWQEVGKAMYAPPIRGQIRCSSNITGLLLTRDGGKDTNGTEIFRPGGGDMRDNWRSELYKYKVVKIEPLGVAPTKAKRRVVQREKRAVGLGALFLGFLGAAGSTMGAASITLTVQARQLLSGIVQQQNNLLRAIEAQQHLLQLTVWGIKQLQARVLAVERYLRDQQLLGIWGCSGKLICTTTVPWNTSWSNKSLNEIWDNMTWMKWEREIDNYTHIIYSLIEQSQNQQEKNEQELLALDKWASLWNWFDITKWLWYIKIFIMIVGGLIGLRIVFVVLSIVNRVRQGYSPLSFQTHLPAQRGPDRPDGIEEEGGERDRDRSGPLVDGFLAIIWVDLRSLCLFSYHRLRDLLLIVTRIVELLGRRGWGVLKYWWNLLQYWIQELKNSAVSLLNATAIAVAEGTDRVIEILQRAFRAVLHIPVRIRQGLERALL

IgG1b12 antibody
50% neutralization of recombinant virus, single-round luciferase entry assay (:g/ml (so in the source); symbol garbled)) [1]: 2.5 | 90% neutralization of recombinant virus, single-round luciferase entry assay (:g/ml (so in the source); symbol garbled)) [1]: > 10 | 90% neutralization of recombinant virus, single-round luciferase entry assay (g/ml (so in the source); symbol garbled)) [2]: 1.25 | 50% neutralization of recombinant virus, single-round luciferase entry assay (:g/ml (so in the source); symbol garbled)) [3]: 5 | 90% neutralization of recombinant virus, single-round luciferase entry assay (:g/ml (so in the source); symbol garbled)) [3]: > 20
